# Assay results: the DeepSol protein solubility set
# Assay: soluble on expression in E. coli; label from the status in PepcDB or PDB records
row,Sequence,soluble on expression in E. coli
1,MRPILLPDPPSLSTGVPDIFEQGGSHNVVRRAVVIGNGFPGSENQCIGLVRALGLSDNHLLYVFSLLGLSLSRSGNFILFSTSLECMNVQRRRNYLNFYGNNELRIESLVEHDAGAITEFRLQGTLRVTRPKGGLNEWLHWLPVGFHKKLDFILRHIYLYSRLMLGSKQSKYISSVPSENGGNVGLASILEADVKGIVNLARQTYEKDGPLIVIACGRDTISIASSIRRLASENVFVVQIQHPRSHLNRFDMVITPRHDYYPLTLEAQEQVPRFMRSWITPREPPQDHVVLTTGALHQIDYASLRKAASAWHDEFAALPKPLVVVNIGWPRSNCRYGADLAKQLTDSLLNVLATCGSVRITLSYKTPAKVSRVIFKELGDNPKVYIWNGQEPNPYMGHLAWGDAFVVTADSVSLISEACSTGKPVYVVGADHCKWKIAEFQKSLRERGVVRSFTGFEDMSESWSYPPLNDTAEAATRIRRELAARGWSLRS,soluble
2,GVFTFEDEINSPVAPATLYKALVTDADNVIPKALDSFKSVENVEGNGGPGTIKKITFLEDGETKFVLHKIESIDEANLGYSYSVVGGAALPDTAEKITFDSKLVAGPNGGSAGKLTVKYETKGDAEPNQDELKTGKAKADALFKAIEAYLLAHPDYN,soluble
3,MGSDKIHHHHHHMDVMVRPSGMPAESGQEPMADGPVAAPFMRLSSKLRDDLYEEVRHDKTWHQRLTWSRGEWTPGSLTSLASRFERSLRWNKVKPEKENFDSPRPTIQSQSICREHLTGTAPEFLSEETLRILTEAVGSAQIKEAVIDMECWERTFLNSEGCSVTTQGKWFDFYASYNTGAALVRWRDGTSTQEEVSRLARPPLPILGRGVTWSEPRTIDTVRYDLVLLSPTASSVVIHELIGHGCEHFREKIVGLRVGPEELRVVAFPKNGSGFDDEGTPSEEIVLVENGIVRHAVRDRATGGMAPFSGLTKVASHGVKPGSRCTHLKAEGESSQEGVTGVPAERTVWIEHFSAANYHSGRAFFRSGLAWVGSREELLYPLMPFTMSIDIYELASLLWHLDGQTERARSGLCNKDGEFLPTFNFAPKIALRPVVSIRP,not soluble
4,MGSDKIHHHHHHMSDAAIAQDLAALAAQLQTLAGLQGKRDIQAAAASLPHRPFPKLGLAAALGDDAALLPATANRLLFACEGIHPDLVAEDPWFAGWSGVLVNLSDIAAMGGRPIAVVNSLWSRDRQHADQVFAGLQFAAEKFGIPIVGGHSNLQSPYSALSVAVLGQVGPHVLSARSAQAGDRCYLLINRDGQFYRHYPFWDAATGTAPEQLRRHWELMAQLADAGLVSAAKDVSMGGLIGTAVMFAETSGAGLDLHLDRLSYPAGVSRDRWLTCFPSFGFLLAVPEACCDRFLQRVATEPDLTCDHLGSFTNTGQVRLCDRQAQVCFWDCQEQSLMGFSALTDPESPH,not soluble
5,MILTPPDTPFFLRNGNADTIAAKFLQRPAPAYRRELLPDSTGKTKVAYDFSDGISPDAPLVVLFHGLEGSSRSHYAVELMLAVRDRGWHGVVVHFRSCGGIANTAPVFYHLGDTAEIAFTLDTFAARYREIYAVGVSLGGNALAKYLGEQGKKALPQAAAVISAPVDAEAAGRRFDSGITRLLYTRYFLRTLIPKAKSLQGFQTAFAAGCKTLGEFDDRFTAPLHGFADRHDYYRQTSCKPLLKHVAKPLLLLNAVNDPFLPPEALPRADEVSEAVTLFQPAYGGHVGFVSSTGGRLHLQWLPQTVLSYFDSFRTNRR,not soluble
6,MKMWQRKTDSSGVIQMDLKKLEGIFEGMLFASGDKVSIEKLSSITGIDKKTVKLVINNMIVKYNNDPSRGITIREINNGYQLCSKPEYYDYIKQLFEPKQRSGLSQAALETLAIIAYNRPITKAKIEQIRGVNSDSAITKLLEKNLIREAGRLDAPGKPVLYETTDEFFRSFGFKSDADLPIFELNDIHETVEINQNSEQEKADTELEKQEKA,not soluble
7,MGDIDYQAIEFAYTKCADQQRDTPARHCVIVVGAGPVGLTTALDLARQGLRVVVLDDDYRLSTGSRAICFAKRTLEIWDRLGVGQRMVDKGVSWNVGKVFFRDQEVWRFDLLPEPGHRRPAFINLQQYYAEGYLHELASAQPGIELRWKSKVVGVAQQADGVQVTVDTPDGAYALHVDWLVACDGARSPVRKLLDLETHGRVFKDRFLIADVKMAADYPAERWFWFDPPFHPNQSVLLHMQPDNVWRIDFQLGWNADPVEAVKPENVLPRIRALLGPDADFELEWVSVYTFACERMDHFRHGRVVFAGDSAHRVSPFGARGANSGVQDAENLAWKLKLVLAGHAPESLIDSYAAEREYAADENILNSSRSTDFITPKSEVSRTFRNAVLNLARQHPFARTLVNSGRLSVPAAYADSPLNTPDSDPYAGTMRPGAVALDAPVRADAQPGWWLSQLDGGFALALFCGAETPRADMLDALRALQQDEVPVQPILVCDAGAAPAAAPAGVRVVEDSEGWLARRYDARPGTCYLIRPDQHIAARFRAFDAQAVRRALARAIGRALEHHHHHH,not soluble
8,MGSDKIHHHHHHMGSPYIQARLSQIGDLMSFGIIQLDYEEVLAKHYRRWIQPGDTVIDVGAHLGLHLSRFIELAGPTGQVIGFEPLPFAFDILSTQHACPTLTLNNVALAHEPGHAEFTFAQGSPGESGLRKRLYISPETVTPTLIPVKVDTLDMHTENLRSVDYIKIDIEGGEIGCLEGATRTIDKFRPLISTEYGYPSYSVYGLTKDSLFNFASSKNYVLFDIFLNRIDTRDEWHIVCDSICWDYFLVPAEKLDVFTERVARRAF,not soluble
9,MGSDKIHHHHHHMMTSTPRLLQAIQQTTTAILKTNLVGIYLHGSYVLGSYNEQVSDLDYLIVVRRSLTLAEKRQLMTATITQLWPLAPHKGLEFHVLLLSATQHFVHPCPFDFHFSKYHYEDYQRTPLAYLKAMHGTDPDLAAHLTILQAAGQVLLGPAITTVFGPIPAVAYWDSIKSDIANAETAIVQLPMYTVLNLCRVRAYQQDQLIISKQAGGEWGLQQLPTQWHPLIRQALAAYAGQQDEQVIRWSRPNLVAFARIMLAELGLKSE,not soluble
10,MTATWSVNKKIFLQNAITVKNNQPLMAVVKNNAYHYDLEFAVTQFIHAGIDTFSTTSLREAIQIRQLAPDATIFLMNAVYEFDLVREHQIHMTLPSLTYYYNHKNDLAGIHVHLEFENLLHRSGFKDLNEIKEVLKDHHHNQNAKMIISGLWTHFGYADEFDVSDYNVERSQWMEIVEALLSEGYQFDLIHAQNSASFYREGQILLPHHTHARVGIALYGSRPYSSLNQHDIVQSLTLKAHVIQVREVQAGDYCGYSFAFEVTKNNTKLAVVDIGYGDGILRTRAKHEALINGKRYPIRALMMSHMFVEVDGNVHAQDEVILYNNDIRIDEYTFKGVGANSEQLSAMNHDSLKKEYISNDC,not soluble
11,MNRRRKLLIPLLFCGAMLTACDDKSAENAAAMTPEVGVVTLSPGSVNVLSELPGRTVPYEVAEIRPQVGGIIIKRNFIEGDKVNQGDSLYQIDPAPLQAELNSAKGSLAKALSTASNARITFNRQASLLKTNYVSRQDYDTARTQLNEAEANVTVAKAAVEQATINLQYANVTSPITGVSGKSSVTVGALVTANQADSLVTVQRLDPIYVDLTQSVQDFLRMKEEVASGQIKQVQGSTPVQLNLENGKRYSQTGTLKFSDPTVDETTGSVTLRAIFPNPNGDLLPGMYVTALVDEGSRQNVLLVPQEGVTHNAQGKATALILDKDDVVQLREIEASKAIGDQWVVTSGLQAGDRVIVSGLQRIRPGIKARAISSSQENASTESKQ,not soluble
12,MRMAAMHSGGKTIQLNAGHYQAKIVTVGAGLAELTHHGRHVVIPHKPEEIPMAHLGKVLIPWPNRVTNGCYSYNGKVFQLAVNDPVSQTAIHGLLAWRDWQINYQSATEASLTIFLPPSYGYPFALISEVIYRLDAASGLHVLIRTQNIGDESAPYGAGAHPYLTCNLQSIDSCVLTLPASEELPAGRDFSASCLLGETRLDHAVKTATTPAEWEVRLTSPTQNMSTFLRSTQPWLQIYTGEKLSRKGLAVEPMSCPPDAFNSGIALIHLAPKAIHQLHFSIGCD,not soluble
13,MGSDKIHHHHHHMKVLHVNAGLENGGGLSHIVNLLTEAKRENKDFDLLTLADGPVAAAAREHGINTYVLGAKSRYNLASLKKLIKFINDGHYDIVHTHGARANLFLSLIHKRISAVWCVTVHSNPYLDFEGRGFLGKVFTKFNLRALKKADCIFAVTKRFANLLVNQTQLDKNKVHVIYNGIFFHNDSEIPAKYEHTYFNVINVARTEKVKGQELLLKAVKKLNDQHIRLHIAGDGSQLEPLKALTRQLNMAPQVTFHGFMTHHQLSGLYKRIDLAVLTSYSESFPLVLLEATDNLIPILSTDVGDIHKMIPGPKYGFIAKTGDIDSIAKQLELAVNKTTKQLREMAYTEKRYAEEHFSVKNQLADIEKVYSTLI,not soluble
14,MGSDKIHHHHHHMNIAIFGAGSTGCYLAGQLCISELQVSLICRPAIKQKIIANNGITLTDYNGFKQTIMPQALITDINQESSIYGKFDVVFVTLKCHQVSSIANQLMAITHDNSSIIFMQNGLGSFDSIKDSLDHYSLLQGITPFNVLQLPNAVFHKGTEGVFTLQANPHTIAIQSALVNHGFGCDIEADFTPMIYGKLLLNLNNALNAVTDLPIKQQLSHYKNRRILAKAMKEWLAVCEAADIQLHQYTKVKPSWLPTILLLPNVLFTVLAKQMLDIDPKARSSMWEDIQAKRKTEVDYINGAVVSIGKKYGIKTPVNQAIVEQIKQLEQRH,not soluble
15,MSLRAYIPIDKYSLPEKFEIPLGNTNYIFEVDYNQTEKFFTVDLYDIDHTPIAIGERMVIDERLWQDIVDTRLPSADLVPMDESGASKEITFENFGIQVFLYIDDLPPNYNVPSLEREDN,not soluble
16,MHSALWVSKTGMAAQDTKMTAISNNLANVNTVGFKRDRVVFEDLFYSIQRQPGAQVDQVNELPSGVQLGSGVRVVGTQKVFTQGNTQNTTQDLDLAVMGQGFFQIENSDGQIMYTRNGQFHINSEGLMVNSQGLPLEPQIQI,not soluble
17,MDDDFLPRRLKYSKHSLMLVALDYIPKELHKCLDMDRLEDVSAGGAYTTKQMLEEILNSDSRFRIYGNAEVFEKLLEKYMNFTSCREKFGFEKLQVLCVPIPMSPNLKGEKYLTKQDMFEHVQFYLMDVFHHTGFPFDNVVISLAFIKFRADRLNGCMEFVSNAREVLNSIESEIDQFLDELLDILNAEYFPKNYALPSKNPSFDTLYKQWKSFFPDWKPDELDSIQRFLEDRYSHLPPHKNAEKYGGILFVNHYLTNKYRELIDSRPEVFLPYNAMNRHKAPITVRVILFKDTKLVLRGELYKAMNQAYPDRVPIDYTDDLEEGIIYAMNFEDVFKEFGDLWYDIEFILTKVTRTNNATPILTLSGEFCIPGLQAFYNIFHVMNNVLRLFQKVKKEMWHFVCGYVKILEVRLKPFEDTPCFITNTALETIIQELCEYWRMFENAPFKDIRTVKGATFTADDLKNELSHIGVLDIFPELGELVDTGYQAILEVKQNADNLKTWDLMDYLESTLIFCFSSRFEFLNNLLEIQEGIHPKNENLANIFLGITSKPENLLPYLIDKSRYQDVLPTVPLERHRVRVTYNFSIDDETISEPTPVPQQLEKKTENCSECNDVRMEMNTVKDVLQNVQKQLKNMQQNSEQFETKLVASDNKTKNFEKQLEDERRKNNKHLESSRKTLISKNEQLEALKRRATALSNCQAENQTLKFKIAEHHLLEKQLNISNKDVTQARDQLSGQISELEIQLKSELKTVQHLKKEQTISCNLTNEITKLKDQIEREKLCSKQLEKEISQLRTEADEMNIVMTQSLEMENLQLRDATKKFETENASLLKTNQQLSIQNEEQKRLIQVLLEKQQTAPSSSDFPVPSTQMTDNEENSRQQLWKYQKIKDSFRDGIKLRKAEAMVKKLTSLNRDPGVHQMAHRELENFKKLTSHYLQAIEMNILKIKNNGSSDLEQLPEAPKFSDEFMRFYRNATGKQTLTSASFSSGNSRGTQSYGSSISTMPSTSSRGNVQHHSGSAVRGQSITPTGLSQVPMSPRKLFSQPNIVTASITSTELDDTECAICLDEMTNFKETIKCQCRRRFHLECATKWLNEKRECPTCRKLLLNPSDYPPLN,not soluble
